From patent publication US20220112295A1 (Novo Nordisk, published 2022) come the findings set out here.

Experiment [1] concerns the target T1, native human CD30L expressed on Ramos cells (human, UniProt P32971 1-234).
T1 construct: It is used here for the native protein on human B cell lines; also called huCD30L; Native huCD30L
T1 sequence: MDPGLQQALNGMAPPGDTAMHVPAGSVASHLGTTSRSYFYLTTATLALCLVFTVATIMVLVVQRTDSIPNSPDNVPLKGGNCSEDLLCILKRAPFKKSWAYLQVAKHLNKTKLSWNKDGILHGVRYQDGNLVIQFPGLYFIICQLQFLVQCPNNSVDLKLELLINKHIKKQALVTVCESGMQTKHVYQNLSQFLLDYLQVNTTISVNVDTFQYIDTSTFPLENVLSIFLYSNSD
In words: FACS Kd method on Ramos cells, equilibrium, KinExA n-curve analysis. Here is the method:
Binding affinity of CD30L antibodies to CD30L expressed on Ramos cells were determined by FACS Kd method. The Ramos cells were cultured in RMPI1640 media+10% FBS+L-glut+0.05% azide. Two equilibrium reactions were set up where the antibodies were titrated 1:3 from 60 nM to […] using cell culture media and incubated with two different constant cell concentrations (25000 and 250000 cells). The plates were sealed with parafilm and incubated at 37° C., 20 h, shaking. The equilibrium plates were centrifuged and cell pellets were washed twice with ice cold FACS buffer (1× D-PBS+2% FBS). The cells were then incubated with a secondary antibody goat anti-human Fe Cy5 (Jackson Immuno Research, West Grove, Pa.) and with 7AAD (BD-Biosciences, Rockville, Md.) for 1 h on ice in the dark. Following the incubation, the cells were washed twice with ice-cold FACS buffer before flow cytometry analysis. The GeoMean values of FL4 shift gated on live cell population measure the bound [Ab]. The inverse of the GeoMean values that reflects theoretical free [Ag] in the equilibrium solution was then calculated. The inverse values of the GeoMean read were used in KinExA software for analysis and Kd calculation for each antibody. The free [Ag] measure was plotted against the starting concentration of titrating component and from these plots at two different cell concentrations the Kd was obtained from curve fitting using n-curve analysis in KinExA™ Pro software. The 95% confidence interval is given as Kd low and Kd high.

For experiment [2], the target named is T2, native cynomolgus monkey CD30L on activated T cells (cynomolgus monkey, UniProt A0A7N9CVX7 1-234).
T2 construct: whole, on cells; also called cynomologous CD30L
T2 sequence: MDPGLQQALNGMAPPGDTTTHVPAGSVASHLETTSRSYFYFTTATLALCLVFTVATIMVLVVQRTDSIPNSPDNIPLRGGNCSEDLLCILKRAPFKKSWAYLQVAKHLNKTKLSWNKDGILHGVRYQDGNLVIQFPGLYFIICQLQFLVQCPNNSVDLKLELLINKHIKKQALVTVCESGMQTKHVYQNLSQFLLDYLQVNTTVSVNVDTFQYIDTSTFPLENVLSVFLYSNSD
In words: FACS, antibody at 50 ug/mL, inhibition of huCD30.Fc-His binding to activated cynomolgus T cells. The protocol:
(§1) Cynomologous activated T cells were prepared by isolating peripheral blood mononuclear cells (PBMC) from heparinized cynomolgus monkey blood by density centrifugation over Isolymph (2000 rpm. for 20 minutes). PBMC were resuspended in 25 mLs of PBS, added to 300 μl of a 50% solution of 2-Aminoethylisothiouronium bromide (AET)-treated sheep erythrocytes and centrifuged at […] at 4° C. for 10 minutes. Pelleted cells were incubated at 4° C. for a further 20 minutes, gently resuspended and centrifuged over Isolymph. Supernatant was removed down to the T cell/erythrocyte pellet. The pellet was then resuspended in 25 mL of lyses buffer (0.85% ammonium chloride in water) and incubated at 37° C. for 10 minutes. The resultant T cells were pelleted and washed x2 in culture medium (RPMI-1640 medium +10% heat-inactivated fetal bovine serum) and then cultured ([…]) at 37° C. for 18 hr in the presence of 10 ng/mL Phorbol Myristate Acetate (PMA; Sigma Chemicals, St Louis, Mo.) and 500 ng/mL lonornycin (Calbiochem, San Francisco, Calif.). At the end of the culture period, cynomolgus T cells were counted and washed 1× with PBS and incubated with 2% Goat serum, 1% Rabbit serum and 0.1% Human serum in PBS for 30 minutes at […]. Cells were then stained with anti-huCD30L antibodies as described above for human Ramos cells.
The antibodies were also screened for ability to block binding of human CD30L to a soluble human CD30. c molecule. Briefly, human Ramos cells or activated cynomolgus monkey T cells were incubated with anti-CD30L IgGs at 50 μg/mL in blocking buffer for 30 minutes at 4° C. Soluble huCD30. Fc-His was then added at a final concentration of 2.5 ug/mL (30 μL/well) and incubated for 30 minutes at 4° C. Cells were washed ×2 with PBS and incubated with 5 μg/mL of a mouse anti-His monoclonal antibody (30μL/well in blocking buffer) and incubated for 30 minutes at 4° C. After washing ×2 with PBS, cells were incubated with anti-mouse IgG-PE (1:50 in PBS; BD Pharmingen, San Diego, Calif.) for a further 30 minutes at […]. Cells were then washed ×2 with PBS and prepared for FACs analysis.

In the next experiment the target is T3, mouse CD30L (mouse, UniProt P32972 68-239, limits assumed).
T3 construct: The form tested is not described
T3 sequence (looked up): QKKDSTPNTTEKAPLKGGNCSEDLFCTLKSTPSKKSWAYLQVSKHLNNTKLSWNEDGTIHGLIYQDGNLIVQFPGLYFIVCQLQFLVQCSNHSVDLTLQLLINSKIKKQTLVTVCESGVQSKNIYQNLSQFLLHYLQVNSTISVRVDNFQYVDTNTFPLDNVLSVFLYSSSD
Briefly: not described.

Experiment [3] has as its target T2, native cynomolgus monkey CD30L on …. In words: FACS, native cyno CD30L on activated cynomolgus T cells. Here is the method:
The antibodies were rescreened for binding to native human and cynomologous monkey CD30L. Briefly, human Burkitt's lymphoma Ramos cells (3×10⁵/well) were incubated in round-bottomed 96-well microtiter plates (Costar® 96 well plate (Corning; Acton, Mass.) with a titration (10 μg/mL to 3.2 ng/mL final concentration) of anti-CD30L IgG antibodies in blocking buffer (PBS containing 0.02% sodium azide, 2% normal goat serum and 1% normal rabbit serum). Human […] fusion protein was included as a positive control for binding. Cells were incubated for 30 minutes at 4° C. then washed ×2 with PBS and incubated for a further 30 minutes at 4° C. with 30 μL/well of anti-hu IgG-biotin (1:50 in blocking buffer; Jackson Immunoresearch, West Grove, Pa.). After washing ×2 with PBS, cells were incubated for 30 minutes at 4° C. with 30 μL/well (1:50 dilution in PBS) of Streptavidin-Phycoerythrin (PE; Molecular Probes, Eugene, Oreg.). Cells were washed 2× with PBS and prepared for FACs analysis.
as §1

As usually defined, the Kd is the constant that tells how readily two partners part at equilibrium. By % inhibition is commonly meant the drop in the measured response relative to a control, in per cent. The term EC50 denotes the concentration giving half of the maximal effect.

B1: Antibody E (antibody, V domains shown)
VH: QVQLQESGPRLVKPSETLSLTCTVSGGSITNNYWSWIRQPAGKGLEWIGRVYSSGLTNYKPSLKSRVTMSVDTSKNQFSLRLNSVTAADTAVYYCARERATVTTRYHYDGMDVWGQGTSVTVSS
VL: QSALTQPASVSGSPGQSITISCTGSSSDIGTYNYVSWYQQYPGKAPELMIYEVNNRPSGVSDRFSGSTSGNTASLTISGLQANDEADYYCSSYSSSSTWVFGGGTKLTVL
notes: also called mAb E
For B1, binding in experiment [1] was characterised by a dissociation constant (Kd) of 0.0521 nM. In addition, the “% inhibition” value in experiment [2] was determined as 87%. In addition, the binding result in the experiment with mouse CD30L was “no binding”. This molecule gave an EC50 in experiment [3] of 2.7 nM.

B2: Antibody A (antibody, V domains shown)
VH: QVQLQESGPGLVKPSETLSLTCTVSGGSISSYIWSWIRQPAGKGLEWIGRIYASGNTNYNPSLKSRVTMSVDTSKNQFSLKLSSMTAADTAVYYCARDYRVAGTYYYYYGLDVWGQGTTVTVSS
VL: QSALTQPASVSGSPGQSITISCTGTSSDVGVYDYVSWYQQHPGKAPKLMIYEVSNRPSGVSNRFSGSKSGNTASLTISGLQTEDEADYYCSSYTSRSTWVFGGGTKLTVL
notes: Human antibody (XenoMouse); also called mAb A; anti-hCD30L A
B2 came in with a Kd in experiment [1] of 0.0255 nM. The “% inhibition” value in experiment [2] is 77%. In the experiment with mouse CD30L, the binding result is on record as “no binding”. Besides, the EC50 in experiment [3] turned out to be 2.2 nM.

B3: Antibody F (antibody, V domains shown)
VH: QVQLQESGPGLVKPSETLSLTCTVSGGSISSYYWSWIRQPAGKGLEWIGRIFASGSTNYNPSLRSRVTMSRDTSKNQFSLKLSSVTAADTAVYYCAKERVGVQDYYHYSGMDVWGQGTTVTVSS
VL: QSALTQPASVSGSPGQSITISCTGTSSDVGLYNYVSWYQQQPGKAPKLMIYEVSKRPSGVSNRFSGSTSGNTASLTISGLQADDEADYSCSSYTSSSTWVFGGGTKLTVL
notes: also called mAb F
Regarding B3, in experiment [1], the affinity, expressed as Kd, was 0.0357 nM. Also, in experiment [2], the “% inhibition” value was found to be 97%. For the same molecule, in the experiment with mouse CD30L, the binding result is on record as “no binding”. Also, the EC50 in experiment [3] amounted to 2.9 nM.

B4: Antibody D (antibody, V domains shown)
VH: QVQLQESGPGLVKPSETLSLTCTVSGGSISSYSWSWIRQPAGKGLEWIGRTSTSGRNNYNPSLKSRVTMSVDTSKNQFSLKLNSVTAADTAVYYCARDFTIAARRYYYYGMDVWGQGTTVTVSS
VL: QSALTQPASVSGSPGQSITISCTGTSSDIGLYNYVSWYQQHPGKAPKLIIYEVINRPSGVSNRFSGSESGNTASLTISGLQAEDEANYYCSSYTSSSTWVFGGGTKLTVL
notes: also called mAb D
In turn, B4 showed a Kd in experiment [1] of 0.0119 nM. In experiment [2], the “% inhibition” value is 84%. In the experiment with mouse CD30L, the binding result is “no binding”. The same molecule displayed an EC50 in experiment [3] of 2.7 nM.

B5: Antibody B (antibody, V domains shown)
VH: QVQLQESGPGLVKPSETLSLTCTVSGGSISSYYWTWIRQPAGKGLEWIGRIYTSGITNYNPSLKSRVTMSVDTSKNQFSLKLSSVTAADTAVYYCARERVVGASRYYYYGVDVWGQGTTVTVSS
VL: QSALTQPASVSGSPGQSITISCTGTSSDVGLYNYVSWYQQHPDKAPKLMIFEVNNRPSGVSNRFSGSNSGNTASLTISGLQAEDEADYYCSSYTSSSTWVFGGGTKLTVL
notes: also called mAb B
On to B5, for which, in experiment [1], binding was characterised by a dissociation constant (Kd) of 0.00743 nM. For the same molecule, the “% inhibition” value in experiment [2] is 88%. Also, the binding result in the experiment with mouse CD30L is “no binding”. The molecule further displayed an EC50 in experiment [3] of 4 nM.

B6: Antibody C (antibody, V domains shown)
VH: QVQLQESGPGLVKPSETLSLTCTVSGGSISSYYWTWIRQPAGKGLEWIGRIYTSGITNYNPSLKSRVTMSVDTSKNQFSLKLSSVTAADTAVYYCARERVVGASRYYYYGVDVWGQGTTVTVSS
VL: QSALTQPASVSGSPGQSITISCTGTSSDIGLYDYVSWYQQHPDRAPKLIIFEVNNRPSGVSYRFSGSNSGNTASLTISGLQAEDEADYYCSSYTSSSTWVFGGGTKLTVL
notes: also called mAb C
In experiment [1], B6 had a Kd of 0.044 nM. Besides, the “% inhibition” value in experiment [2] was 83%. Further, the binding result in the experiment with mouse CD30L was “no binding”. Further, the EC50 in experiment [3] stood at 1 nM.
